Test system: peptide library, one residue held at a place counted from the S/T acceptor
Assay: relative phosphorylation of the sub-library (ratio to the mean residue at this position); Pediculus humanus corporis; higher = residue favoured
In short: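 Purified recombinant kinases (human or orthologue constructs) were incubated in 384-well plates with biotinylated degenerate peptide sub-libraries, each fixing one residue at one position around a central Ser/Thr. Peptides were at 50 μM, with 50 μM ATP spiked with γ-32P-ATP, for 90 min under kinase-specific conditions. Spots on streptavidin membranes were phosphorimaged and quantified by densitometry. Relative sub-library phosphorylation is a ratio to the mean residue at that position.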

PINK1, construct: aa126-end, sequence (E0W1I1 126-575, looked up): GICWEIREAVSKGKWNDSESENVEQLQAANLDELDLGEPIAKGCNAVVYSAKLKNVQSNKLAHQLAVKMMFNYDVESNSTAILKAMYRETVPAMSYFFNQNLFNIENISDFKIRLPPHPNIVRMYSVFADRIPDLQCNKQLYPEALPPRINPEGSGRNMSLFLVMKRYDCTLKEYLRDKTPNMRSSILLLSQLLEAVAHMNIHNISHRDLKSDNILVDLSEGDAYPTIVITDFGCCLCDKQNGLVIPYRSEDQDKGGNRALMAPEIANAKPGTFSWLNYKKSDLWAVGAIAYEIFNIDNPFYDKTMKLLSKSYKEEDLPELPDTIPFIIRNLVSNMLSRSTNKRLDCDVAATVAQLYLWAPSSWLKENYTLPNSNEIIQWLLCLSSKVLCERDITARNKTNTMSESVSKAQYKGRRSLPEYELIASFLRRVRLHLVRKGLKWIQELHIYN

Work on “PINK1, construct: aa126-end (from UniProt E0W1I1)” yielded a relative phosphorylation (M fixed, at -1) of 1.23, a relative phosphorylation (M fixed, at -2) of 2.75 and a relative phosphorylation (M fixed, at -3) of 1.57. For the same substance, the relative phosphorylation (M fixed, at -4) was 0.804, the relative phosphorylation (M fixed, at -5) was 0.923 and the relative phosphorylation (N fixed, at +1) was 2.33. For the same substance, the relative phosphorylation (N fixed, at +2) was 1.02, the relative phosphorylation (N fixed, at +3) was 1.17 and the relative phosphorylation (N fixed, at +4) was 0.858. For the same substance, the relative phosphorylation (N fixed, at -1) was 1.52, the relative phosphorylation (N fixed, at -2) was 0.589 and the relative phosphorylation (N fixed, at -3) was 0.694. It also gave a relative phosphorylation (N fixed, at -4) of 1.18, a relative phosphorylation (N fixed, at -5) of 0.888 and a relative phosphorylation (P fixed, at +1) of 2.36. It also gave a relative phosphorylation (P fixed, at +2) of 1.41, a relative phosphorylation (P fixed, at +3) of 1.06 and a relative phosphorylation (P fixed, at +4) of 1.08. For the same substance, the relative phosphorylation (P fixed, at -1) was 0.419, the relative phosphorylation (P fixed, at -2) was 0.316 and the relative phosphorylation (P fixed, at -3) was 0.429. The relative phosphorylation (P fixed, at -4) was 0.63, the relative phosphorylation (P fixed, at -5) was 0.878 and the relative phosphorylation (Q fixed, at +1) was 0.786. For the same substance, the relative phosphorylation (Q fixed, at +2) was 1, the relative phosphorylation (Q fixed, at +3) was 0.957 and the relative phosphorylation (Q fixed, at +4) was 0.983. For the same substance, the relative phosphorylation (Q fixed, at -1) was 1.72, the relative phosphorylation (Q fixed, at -2) was 1.06 and the relative phosphorylation (Q fixed, at -3) was 0.609. For the same substance, the relative phosphorylation (Q fixed, at -4) was 0.831, the relative phosphorylation (Q fixed, at -5) was 0.733 and the relative phosphorylation (R fixed, at +1) was 2.05. It also gave a relative phosphorylation (R fixed, at +2) of 1.57, a relative phosphorylation (R fixed, at +3) of 2.21 and a relative phosphorylation (R fixed, at +4) of 2.15. For the same substance, the relative phosphorylation (R fixed, at -1) was 1.58, the relative phosphorylation (R fixed, at -2) was 1.02 and the relative phosphorylation (R fixed, at -3) was 0.815. It also gave a relative phosphorylation (R fixed, at -4) of 0.676, a relative phosphorylation (R fixed, at -5) of 0.75 and a relative phosphorylation (V fixed, at +1) of 0.474. The relative phosphorylation (V fixed, at +2) was 0.805, the relative phosphorylation (V fixed, at +3) was 0.737 and the relative phosphorylation (V fixed, at +4) was 0.692. It also gave a relative phosphorylation (V fixed, at -1) of 0.716, a relative phosphorylation (V fixed, at -2) of 0.838 and a relative phosphorylation (V fixed, at -3) of 0.441. It also gave a relative phosphorylation (V fixed, at -4) of 0.595, a relative phosphorylation (V fixed, at -5) of 0.806 and a relative phosphorylation (W fixed, at +1) of 0.455. It also gave a relative phosphorylation (W fixed, at +2) of 1.03, a relative phosphorylation (W fixed, at +3) of 1.14 and a relative phosphorylation (W fixed, at +4) of 1.47. The relative phosphorylation (W fixed, at -1) was 0.772, the relative phosphorylation (W fixed, at -2) was 1.55 and the relative phosphorylation (W fixed, at -3) was 1.74. It also gave a relative phosphorylation (W fixed, at -4) of 1.48, a relative phosphorylation (W fixed, at -5) of 1.17 and a relative phosphorylation (Y fixed, at +1) of 0.548. It also gave a relative phosphorylation (Y fixed, at +2) of 1.2, a relative phosphorylation (Y fixed, at +3) of 1.17 and a relative phosphorylation (Y fixed, at +4) of 1.01. The relative phosphorylation (Y fixed, at -1) was 0.775, the relative phosphorylation (Y fixed, at -2) was 1.03 and the relative phosphorylation (Y fixed, at -3) was 1.65. The relative phosphorylation (Y fixed, at -4) was 1.35, the relative phosphorylation (Y fixed, at -5) was 1.04 and the relative phosphorylation (pThr fixed, at +1) was 0.442. It also gave a relative phosphorylation (pThr fixed, at +2) of 0.775, a relative phosphorylation (pThr fixed, at +3) of 0.7 and a relative phosphorylation (pThr fixed, at +4) of 0.556. The relative phosphorylation (pThr fixed, at -1) was 0.306, the relative phosphorylation (pThr fixed, at -2) was 0.5 and the relative phosphorylation (pThr fixed, at -3) was 0.537. The relative phosphorylation (pThr fixed, at -4) was 1.01, the relative phosphorylation (pThr fixed, at -5) was 1.67 and the relative phosphorylation (pTyr fixed, at +1) was 0.458. It also gave a relative phosphorylation (pTyr fixed, at +2) of 1.66, a relative phosphorylation (pTyr fixed, at +3) of 0.834 and a relative phosphorylation (pTyr fixed, at +4) of 0.71. The relative phosphorylation (pTyr fixed, at -1) was 1.09, the relative phosphorylation (pTyr fixed, at -2) was 1.06 and the relative phosphorylation (pTyr fixed, at -3) was 3.15. It also gave a relative phosphorylation (pTyr fixed, at -4) of 1.66 and a relative phosphorylation (pTyr fixed, at -5) of 1.26.
